Laboratory results as given in patent US20110044995A1 (KUMAMOTO UNIVERSITY, published 2011).

Legend:
[1] = molecular target: envelope of standard panel pseudotyped virus SVPB5 (HIV-1 subtype B); assay: cell-based or functional assay
[2] = molecular target: envelope of standard panel pseudotyped virus SVPB6 (HIV-1 subtype B); assay: cell-based or functional assay
[3] = molecular target: envelope of standard panel pseudotyped virus SVPB8 (HIV-1 subtype B); assay: cell-based or functional assay
[4] = molecular target: envelope of standard panel pseudotyped virus SVPB11 (HIV-1 subtype B); assay: cell-based or functional assay
[5] = molecular target: envelope of standard panel pseudotyped virus SVPB12 (HIV-1 subtype B); assay: cell-based or functional assay
[6] = molecular target: envelope of standard panel pseudotyped virus SVPB13 (HIV-1 subtype B); assay: cell-based or functional assay
[7] = molecular target: envelope of standard panel pseudotyped virus SVPB14 (HIV-1 subtype B); assay: cell-based or functional assay
[8] = molecular target: envelope of standard panel pseudotyped virus SVPB15 (HIV-1 subtype B); assay: cell-based or functional assay
[9] = molecular target: envelope of standard panel pseudotyped virus SVPB16 (HIV-1 subtype B); assay: cell-based or functional assay
[10] = molecular target: envelope of standard panel pseudotyped virus SVPB17 (HIV-1 subtype B); assay: cell-based or functional assay
[11] = molecular target: envelope of standard panel pseudotyped virus SVPB18 (HIV-1 subtype B); assay: cell-based or functional assay
[12] = molecular target: T1, monomeric gp120 (gp120-SF2; Austral Biologicals) (HIV-1 strain SF2, UniProt P03378 32-509); assay: gp120-capture ELISA, B cell culture supernatant
T1 construct: domain: gp120; also called gp120 monomer

B1: 42F9 (antibody, IgG1, V domains shown)
VH: EVQLVESGGGVVRPGGSLRLSCAASGFAFGEYGMSWVRQAPGKGLEWVSGINWNGGSTGYADSVQGRFTTSRDNAKNSLYLQMNSLRAEDTALYYCARDENYDILTGNYYYGMDVWGQGTTVTVSS
VL: DIQLTQSPSSLSASVGDRVTITCRASQSISNYLNWYQQKPGKAPKLLIYAASSLQSGVPSRFSGSGSGTDFTLTISSLQPEDFATFYCQQSHSIPYTFGQGTKLEIKR
21 µg/mL: IC50 in TZM-bl cells [9]
4.5 µg/mL: IC50 in TZM-bl cells [1]
binds: binding result [12]
> 50 µg/mL: IC50 in TZM-bl cells [2] | IC50 in TZM-bl cells [3] | IC50 in TZM-bl cells [4] | IC50 in TZM-bl cells [5] | IC50 in TZM-bl cells [6] | IC50 in TZM-bl cells [7] | IC50 in TZM-bl cells [8] | IC50 in TZM-bl cells [10] | IC50 in TZM-bl cells [11]
